Our source for the Kd values is PMC9020777.

Holding throughout (assay): FRET or BRET
Holding throughout (settings): remark: other sources report otherwise
For orientation: In BRET a luciferase serves as donor, and the signal depends on an acceptor being close.

Test [1] concerns the target mCerulean3-BCL-XL (human), Q07817.
Test [2] addresses mCerulean3-BCL-2 (human), P10415.
The target in test [3] is mCerulean3-BCL-2 (^CBCL-2) (human), P10415.
Test [4] has as its target mCerulean3-MCL-1 (human), Q07820.

Chain of mCerulean3-BCL-2 (human), P10415 (P10415 whole entry): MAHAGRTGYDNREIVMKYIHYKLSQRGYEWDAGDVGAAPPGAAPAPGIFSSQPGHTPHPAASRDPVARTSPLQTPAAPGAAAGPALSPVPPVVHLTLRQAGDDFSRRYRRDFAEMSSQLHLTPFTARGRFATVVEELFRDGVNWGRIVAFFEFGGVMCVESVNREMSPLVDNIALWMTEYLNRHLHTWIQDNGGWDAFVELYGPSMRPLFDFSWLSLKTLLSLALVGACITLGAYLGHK
Chain of mCerulean3-BCL-XL (human), Q07817 (Q07817 whole entry): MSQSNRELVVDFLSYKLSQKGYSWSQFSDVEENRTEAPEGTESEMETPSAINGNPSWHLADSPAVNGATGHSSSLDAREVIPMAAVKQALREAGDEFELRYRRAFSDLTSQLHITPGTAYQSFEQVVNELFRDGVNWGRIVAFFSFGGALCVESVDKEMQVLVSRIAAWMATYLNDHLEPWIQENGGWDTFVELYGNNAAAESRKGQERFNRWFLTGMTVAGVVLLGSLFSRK
Chain of mCerulean3-MCL-1 (human), Q07820 (Q07820 whole entry): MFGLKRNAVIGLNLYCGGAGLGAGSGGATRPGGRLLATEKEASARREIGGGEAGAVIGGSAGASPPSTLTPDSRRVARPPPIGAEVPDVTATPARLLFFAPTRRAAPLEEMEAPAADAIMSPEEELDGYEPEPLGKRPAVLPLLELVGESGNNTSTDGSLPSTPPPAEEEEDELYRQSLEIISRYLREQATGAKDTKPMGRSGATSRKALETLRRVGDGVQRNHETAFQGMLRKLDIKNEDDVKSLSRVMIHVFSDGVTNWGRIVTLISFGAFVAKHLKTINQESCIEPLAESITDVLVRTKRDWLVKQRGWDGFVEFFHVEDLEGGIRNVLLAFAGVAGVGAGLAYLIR
Chain of mCerulean3-BCL-2 (^CBCL-2) (human), P10415 (P10415 whole entry): as the sequence (P10415 whole entry) above

B1: Venus-BAD, Q92934 1-168 (natural protein)
chain: MFQIPEFEPSEQEDSSSAERGLGPSPAGDGPSGSGKHHRQAPGLLWDASHQQEQPTSSSHHGGAGAVEIRSRHSSYPAGTEDDEGMGEEPSPFRGRSRSAPPNLWAAQRYGRELRRMSDEFVDSFKKGLPRPKSAGTATQMRQSSSWTRVFQSWWDRNLGRGSSAPSQ
In the case of B1, the figures for the dissociation constant Kd in test [1] and in test [2] were 7 µM and 4 µM, respectively.

B2: Venus-NOXA (^VNOXA), Q13794 1-54 (natural protein)
chain: MPGKKARKNAQPSPARAPAELEVECATQLRRFGDKLNFRQKLLNLISKLFCSGT
Consider B2, for which the Kd (in general, the concentration at which binding is half-saturated) in test [3] amounted to 8 µM.

B3: Venus-BIK, Q13323 1-160 (natural protein)
chain: MSEVRPLSRDILMETLLYEQLLEPPTMEVLGMTDSEEDLDPMEDFDSLECMEGSDALALRLACIGDEMDVSLRAPRLAQLSEVAMHSLGLAFIYDQTEDIRDVLRSFMDGFTTLKENIMRFWRSPNPGSWVSCEQVLLALLLLLALLLPLLSGGLHLLLK
In the case of B3, the Kd in test [4] stood at 6 µM; in test [2] it was 3 µM.
